Assay results published in patent publication US20240218057A1 (ROCKEFELLER UNIVERSITY, published 2024).
Substitutions are numbered along the chain they refer to.

B1: C951 (antibody, V domains shown)
VH: QVQLQESGPRLVKPSGTLSLTCAVSGGSISTTNWWSWVRQPPGKGLEWIGEIHHSGNTNYNPSLKSRVTISVDRSKNQFSLKLSSVTAADTAVYFCARDGGRPGDPFDIWGQGTMVTVSS
VL: QSALTQPASVSGSPGQSITISCTGTSSDVGGYNYVSWYQQHPGKAPNLMIYDVSDRPSGVSNRFSGSKSGNTASLTISGLQAEDEADYYCNSFTSNSTRVFGTGTKVTV
B2: C952 (antibody, V domains shown)
VH: EVQLVQSGAEVKKPGESLTISCKDSGNSFTIYWIGWVRQMPGKGLEWMGMIYPGDSGTRYSPSFEGQVTISADESINTAYLQWRSLKASDTAMYYCVRGIAVDWYFDLWGRGTLVTVSS
VL: QSVLTQPPSVSGAPGQRVTISCTGSSSNIGAGFDVHWYQQLPGTAPKLLIYGNNNRPSGVPDRFSGSKSATSASLAITGLQAEDEADYYCQSSDSSLSGLYVFGTGTNVIV
B3: C853 (antibody, V domains shown)
VH: QVQLQESGPGLVKASQTLSLTCTVSGGSFRSGGYYYNWIRQHPGKGLEWIGYIFYTGVTYYNPSLKSRVSISVDTSKNQLSLNLTSVTAADTAVYYCARGSYSDYNGGWDYWGRGTLVTVS
VL: QSALTQPPSASGSPGQSVTISCIGTSSDVGGYNYVSWYQHHPGKAPKLIIYEVSKRPSGVPDRFSGSKSGNTASLTVSGLQADDEADYYCSSYAGSNNWVFGGGTKLTV
B4: C1027 (antibody, V domains shown)
VH: EVQLVESGGGLVQPGGSLRLSCAASGFIVTTNYMSWVRQAPGKGLEWVSLIYPGGSTFYADSVEGRFTISRDNSKNTLYLQVNSLRVEDTAVYYCARDTFGRGDDHWGQGTLVTVSS
VL: DIQMTQSPSSLSASVGDRVTITCQASQDINIYLNWYQQRPGKAPKLLIYDASNLQTGVPSRFSGSGSGTDFTITISSLQPEDIATYYCQQYDNLPRSFGQGTKLEI
B5: C954 (antibody, V domains shown)
VH: QVQLVQSGAEVKKPGSSVKVSCKASGDTFTNYAFSWMRQAPGQGLEWMGRIIPILGIVKYSQKFQDRVRISADKSTSTAYMDLSSLRSEDTAMYYCARDSEFSTSWFSRGYHGMDVWGQGTTVTVSS
VL: DIVMTQSPLSLPVTPGEPASISCRSSQSLLHGDGYNYLDWYLQKPGQSPHLLIYLGSNRTSGVSDRFSGSGSGTDFTLKISRVEAEDVGVYYCMQALQTPPTFGGGTKVEIK
B6: C1008 (antibody, V domains shown)
VH: EVQLVESGGGLIQPGGSLRLSCAASGFTVSSNYMSWVRQAPGKGLEWVSVIYSGGSTYYADSVKGRFTISRDNSKNTLYLQMNSLRAEDTAVYYCARVVGYDFWSGYDGGYFDYWGQGTLVTVSS
VL: QSALTQPASVSGSPGQSITISCTGTSSDVGSYNLVSWYQQHPGKAPKLMIYEVSKRPSGVSNRFSGSKSGNTASLTISGLQAEDEADYYCCSYAGSSTWVFGGGTKLTVL
B7: C1009 (antibody, V domains shown)
VH: EVQLVESGGGLLQPGGSLRLSCAASGFSVSSNYMTWVRQAPGKGLEWVAAIYSGDSTYYVDSVKGRFIISRDNSKNTVYLHLSSLRAEDTAVYYCARLVGYDFRSGSDGGYFDYWGHGTLVTVSS
VL: B6 VL with V29I, S31N, E52D, A86T
B8: C881 (antibody, V domains shown)
VH: EVQLVESGGGLIQPGGSLRLSCAVSGVAVSTNYMSWVRQAPGQGLEWVSTIYSGDTTYYSDSVKGRFTISRDNSKNTFYLQMNSLRVPDTAVYYCARLGGVFNGFNGSFDYWGQGTLVTVS
VL: QSALTQPASVSGSPGQSITISCIGTSSDFENYNLVSWYQQHPGKAPKVMIYEDTKRPSGVSNRFSGSKSANTASLTISGLQAEDEAEYYCCSYAGASTWVFGGGTRVTVV
B9: C953 (antibody, V domains shown)
VH: QVQLVQSGAEVKKPGSSVKVSCKASGGTFSSYAISWVRQAPGQGLEWMGRIIPILGIANYAQKFQGRVTITADKSTSTAYMELSSLRSEDTAVYYCARDSEYSSSWYSRGYYGMDVWGQGTTVTVSS
VL: not shown

biological target: T1, SARS-CoV-2 receptor-binding domain (WT RBD; S protein residues 319-539) (SARS-CoV-2, UniProt P0DTC2 319-539); experiment: BLI (Octet Red), IgG on protein A biosensor, WT RBD in solution, 1:1 fit
T1 construct: also called SARS-COV-2 RBD

Binder | Kd [nM]
B1 | 3.03
B2 | 0.172
B3 | 5.88
B4 | 0.0114
B5 | 7.14
B6 | 500
B7 | 2.13
B8 | 5.26
B9 | 164
